The values below come from article doi:10.1101/2020.09.24.310243.

Assay [1] has as its target E. coli DNA gyrase A2B2 complex (E. coli) (UniProt P0AES4).
Assay [2] deals with [Alexa488]-QnrB1 (QnrB1-His labelled at the N-terminus with AlexaFluor 488). Nature of the assay: fluorescence polarisation. In general terms: In fluorescence polarisation assays a small probe gives low polarisation when free and higher when bound to something large.
For assay [3] the target is unchanged. Description: fluorescence polarisation. This is another data set of the same source.
Assay [4] addresses E. coli DNA gyrase A2B2 complex (E. coli) (UniProt P0AES4). The source holds these as a separate data set.
The target is the same in assay [5]. The source holds these as a separate data set.
Assay [6] addresses GyrB 43 kDa domain (GyrB43), N-terminal ATPase/transducer domain of E. coli GyrB (E. coli).
Assay [7] addresses E. coli DNA gyrase subunit B, full-length, untagged (E. coli) (UniProt P0AES6).

Like-named read-outs stand apart in the source and are kept apart here.

On to “AlbG with a thrombin-cleavable N-terminal hexahistidine tag (natural protein)”, for which the rescue of gyrase supercoiling from 3.3 μM albicidin by AlbG, EC50 in assay [1] was 1200 nM.

For the substance “E. coli DNA gyrase A2B2 complex (from UniProt P0AES4 1-875; P0AES6 1-804)”, the results for the Kd in assay [2] and in assay [3] were 1780 nM and 80 nM, respectively.

Consider “E. coli DNA gyrase subunit B, full-length, untagged (from UniProt P0AES6 1-804) (natural protein)”, for which the KdHi (high-affinity site of the two-site fit), with ADPNP in assay [2] came to 0.16 µM. Besides, in assay [3], the KdHi (high-affinity site of the two-site fit) is 0.06 µM.

Take “GyrB 43 kDa domain (GyrB43), N-terminal ATPase/transducer domain of E. coli GyrB (domain or fragment)”: the Kd in assay [2] is 18000 nM; in assay [3] it was 1670 nM.

On to “QnrB1 with a C-terminal 6xHis tag (wild type, unlabelled) (natural protein)”, for which the inhibition of gyrase supercoiling by QnrB1 without CFX, IC50 in assay [4] was 11000 nM. Also, the ATP hydrolysis rate of 50 nM gyrase A2B2 in the absence of DNA, with 5 μM QnrB1 in assay [5] was found to be 3 fold. Further, in assay [6], the ATPase rate of 4 μM GyrB43 with 5 μM QnrB1 against no QnrB1 was found to be 17 fold. In assay [7], this substance had an ATPase activity of the full-length GyrB subunit with QnrB1 (not shown) of less than 2 fold.

Broadly, the Kd is the equilibrium constant for the complex coming apart.
